Measurements from PMC7367873, “Dissecting the sequence determinants for dephosphorylation by the catalytic subunits of phosphatases PP1 and PP2A” (Nature Communications, 2020).

B1: CPT1A (protein, UniProt P50416 2-773, looked up)
Carnitine …: AEAHQAVAFQFTVTPDGIDLRLSHEALRQIYLSGLHSWKKKFIRFKNGIITGVYPASPSSWLIVVVGVMTTMYAKIDPSLGIIAKINRTLETANCMSSQTKNVVSGVLFGTGLWVALIVTMRYSLKVLLSYHGWMFTEHGKMSRATKIWMGMVKIFSGRKPMLYSFQTSLPRLPVPAVKDTVNRYLQSVRPLMKEEDFKRMTALAQDFAVGLGPRLQWYLKLKSWWATNYVSDWWEEYIYLRGRGPLMVNSNYYAMDLLYILPTHIQAARAGNAIHAILLYRRKLDREEIKPIRLLGSTIPLCSAQWERMFNTSRIPGEETDTIQHMRDSKHIVVYHRGRYFKVWLYHDGRLLKPREMEQQMQRILDNTSEPQPGEARLAALTAGDRVPWARCRQAYFGRGKNKQSLDAVEKAAFFVTLDETEEGYRSEDPDTSMDSYAKSLLHGRCYDRWFDKSFTFVVFKNGKMGLNAEHSWADAPIVAHLWEYVMSIDSLQLGYAEDGHCKGDINPNIPYPTRLQWDIPGECQEVIETSLNTANLLANDVDFHSFPFVAFGKGIIKKCRTSPDAFVQLALQLAHYKDMGKFCLTYEASMTRLFREGRTETVRSCTTESCDFVRAMVDPAQTVEQRLKLFKLASEKHQHMYRLAMTGSGIDRHLFCLYVVSKYLAVESPFLKEVLSEPWRLSTSQTPQQQVELFDLENNPEYVSSGGGFGPVADDGYGVSYILVGENLINFHISSKFSCPETDSHRFGRHLKEAMTDIITLFGLSSNSKK
B2: RASAL2 (protein, UniProt Q9UJF2 1-1139, looked up)
Ras GTPase-activating protein …: MQTPEVPAERSPRRRSISGTSTSEKPNSMDTANTSPFKVPGFFSKRLKGSIKRTKSQSKLDRNTSFRLPSLRSTDDRSRGLPKLKESRSHESLLSPCSTVECLDLGRGEPVSVKPLHSSILGQDFCFEVTYLSGSKCFSCNSASERDKWMENLRRTVQPNKDNCRRAENVLRLWIIEAKDLAPKKKYFCELCLDDTLFARTTSKTKADNIFWGEHFEFFSLPPLHSITVHIYKDVEKKKKKDKNNYVGLVNIPTASVTGRQFVEKWYPVSTPTPNKGKTGGPSIRIKSRFQTITILPMEQYKEFAEFVTSNYTMLCSVLEPVISVRNKEELACALVHILQSTGRAKDFLTDLVMSEVDRCGEHDVLIFRENTIATKSIEEYLKLVGQQYLHDALGEFIKALYESDENCEVDPSKCSSSELIDHQSNLKMCCELAFCKIINSYCVFPRELKEVFASWKQQCLNRGKQDISERLISASLFLRFLCPAIMSPSLFNLMQEYPDDRTSRTLTLIAKVIQNLANFAKFGNKEEYMAFMNDFLEHEWGGMKRFLLEISNPDTISNTPGFDGYIDLGRELSVLHSLLWEVVSQLDKGENSFLQATVAKLGPLPRVLADITKSLTNPTPIQQQLRRFTEHNSSPNVSGSLSSGLQKIFEDPTDSDLHKLKSPSQDNTDSYFRGKTLLLVQQASSQSMTYSEKDERESSLPNGRSVSLMDLQDTHAAQVEHASVMLDVPIRLTGSQLSITQVASIKQLRETQSTPQSAPQVRRPLHPALNQPGGLQPLSFQNPVYHLNNPIPAMPKASIDSSLENLSTASSRSQSNSEDFKLSGPSNSSMEDFTKRSTQSEDFSRRHTVPDRHIPLALPRQNSTGQAQIRKVDQGGLGARAKAPPSLPHSASLRSTGSMSVVSAALVAEPVQNGSRSRQQSSSSRESPVPKVRAIQRQQTQQVQSPVDSATMSPVERTAAWVLNNGQYEEDVEETEQNLDEAKHAEKYEQEITKLKERLRVSSRRLEEYERRLLVQEQQMQKLLLEYKARLEDSEERLRRQQEEKDSQMKSIISRLMAVEEELKKDHAEMQAVIDAKQKIIDAQEKRIVSLDSANTRLMSALTQVKERYSMQVRNGISPTNPTKLSITENGEFKNSSC

Columns and labels:
[1] = system: GFP-14-3-3β and its binding proteins; assay: GFP-14-3-3β co-IP with LC-MS/MS label-free quantification, untreated versus PP1c-treated; set-up: species or system human; settings: PP1 vs untreated; LFQ intensities; 3 replicates each
GFP-14-3-3β = GFP-14-3-3β co-IP with LC-MS/MS, untreated GFP-14-3-3β versus GFP control (14-3-3 interactome); type: binding, human; settings: untreated vs GFP; LFQ intensities; 3 replicates each

Molecule | Difference (log2), PP1 vs untreated [1] [log2] | Difference (log2), untreated vs GFP (GFP-14-3-3β) [log2]
B1 | 0.596 | 1.035
B2 | 0.5963 | 1.812
